Assay results published in US7910330.

Molecular target: native Pf AMA-1 on P. falciparum parasites (strain not specified) (Plasmodium falciparum)
Experiment: cell-based or functional assay

inhibition of invasion: 50 to 60%
Substance: rat monoclonal antibody 4G2
